5 molecules from patent publication US20250270324A1 (INVOX PHARMA, published 2025) can be followed below.

In assay [1] the target is T1, PD-L1 on PD-L1 cells (Promega, CS178103; PD1/PD-L1 Blockade Bioassay J1250/J1255) (UniProt Q9NZQ7 19-290). Kind of assay: cell-based or functional assay.
For assay [2], the target named is T2, Cyno PD-L1-rCD4-His (cynomolgus).
T2 construct: The entry as printed begins with the signal peptide; also called cynomolgus PD-L1-rCD4-His
Kind of assay: SPR; G1/929_01_A02 on PD-L1-rCD4-His (Table 8) against G1AA/E12v2 on PD-L1-His (Table 9). Background: SPR reads the build-up and loss of mass on a sensor chip optically.

Assay [3] deals with T3, human PD-L1-rCD4-His (human).
T3 construct: Human PD-L1 fused to the monomeric C-terminal rat CD4 domains 3 and 4 tag and His tag; made in HEK293; The entry as printed begins with the signal peptide (MRIF...); also called hPD-L1-rCD4-His; hu-PD-L1-rCD4-His
T3 sequence (chain, as listed by the source limits assumed): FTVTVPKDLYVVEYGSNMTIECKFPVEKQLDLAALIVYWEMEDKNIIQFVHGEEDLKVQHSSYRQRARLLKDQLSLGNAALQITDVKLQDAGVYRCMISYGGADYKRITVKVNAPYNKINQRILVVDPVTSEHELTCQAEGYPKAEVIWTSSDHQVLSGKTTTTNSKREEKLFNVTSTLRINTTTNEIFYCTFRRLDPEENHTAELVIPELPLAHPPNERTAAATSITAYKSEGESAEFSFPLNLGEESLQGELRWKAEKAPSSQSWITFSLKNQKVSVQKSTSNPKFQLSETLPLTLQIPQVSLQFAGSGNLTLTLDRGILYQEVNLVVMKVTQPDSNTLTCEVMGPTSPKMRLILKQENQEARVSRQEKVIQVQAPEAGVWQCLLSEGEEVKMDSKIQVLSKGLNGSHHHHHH
The assay is described as above.

The target of assay [4] is T2, Cyno PD-L1-rCD4-His. Kind of assay: SPR, IgG1 from culture supernatant.
In assay [5] the target is T3, human PD-L1-rCD4-His. Kind of assay: SPR, IgG1 from culture supernatant.
For assay [6], the target named is T4, biotinylated human PD-L1-Avi-His (Acro Biosystems, PD1-H82E5) (human, UniProt Q9NZQ7 19-238, biotinylated).
T4 construct: Bought
T4 sequence (Q9NZQ7 19-238 limits assumed): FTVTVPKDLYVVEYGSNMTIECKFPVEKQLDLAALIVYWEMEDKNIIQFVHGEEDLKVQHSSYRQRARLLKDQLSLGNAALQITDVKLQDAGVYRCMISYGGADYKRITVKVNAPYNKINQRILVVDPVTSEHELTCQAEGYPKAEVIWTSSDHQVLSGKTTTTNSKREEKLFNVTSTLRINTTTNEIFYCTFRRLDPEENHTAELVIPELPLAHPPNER
Kind of assay: SPR; end of the range tied to this clone by the KD values of Table 4. On the procedure: (§1) Briefly, the anti-PD-L1 mAbs, diluted in HBS-EP buffer (GE Healthcare, BR100188) at 2 μg/ml, were injected individually on flows cell 2, 3 and 4 of a Protein A chip (GE Healthcare, 29127556) at 30 μl/min to achieve a final response of approximately 110 RU. The recombinant human, cynomolgus and mouse PD-L1-His antigens, diluted in HBS-EP buffer, were injected on flow cell 1, 2, 3 or 4 as appropriate at a concentration range of 81 nM to 0.037 nM with 3-fold dilutions for 4 min at 75 μl/min and then allowed to dissociate in buffer for 10 min. Regeneration was achieved by injecting 10 mM glycine-HCL pH1.5 (GE Healthcare, Human Antibody Capture Kit, BR00356) for 30 sec at a rate of 30 μl/min. Subtracted data (flow cell 2-flow cell 1, flow cell 3-flow cell 1, or flow cell 4-flow cell 1) were analysed using BIAevaluation 3.2 Software (GE Healthcare) to identify binding using the model 1:1 binding with mass transfer, with refractive index (RI) constant 0. To determine the affinities of the mouse PD-L1 binding curves, the Rmax of the corresponding human binding profiles was used.

Assay [7] concerns the target mouse PD-L1 on LK35.2 cells (LK35.2 mPD-L1) (mouse, UniProt Q9EP73 19-290). The assay is described as follows: cell-based or functional assay.
In assay [8] the target is T5, mouse PD-L1-His (Acro Biosystems, PD1-M5220) (mouse, UniProt Q9EP73 19-238).
T5 construct: Bought; also called recombinant mouse PD-L1
T5 sequence (Q9EP73 19-238 limits assumed): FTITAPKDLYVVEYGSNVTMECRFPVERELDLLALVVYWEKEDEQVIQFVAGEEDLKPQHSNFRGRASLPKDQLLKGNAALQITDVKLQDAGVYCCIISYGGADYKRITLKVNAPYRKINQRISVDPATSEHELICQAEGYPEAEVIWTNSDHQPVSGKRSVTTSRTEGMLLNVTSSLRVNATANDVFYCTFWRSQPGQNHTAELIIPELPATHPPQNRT
Kind of assay: SPR (Biacore T200), mAb on Protein A chip, antigen 81-0.037 nM; Rmax of the human profile used. How it is done: as §1

Assay [9] addresses T6, cynomolgus PD-L1-His (Acro Biosystems, PD1-C52H4) (cynomolgus, UniProt G7PSE7 19-239).
T6 construct: Bought; also called Cyno PD-L1-His
The assay is described as follows: SPR (Biacore T200), mAb on Protein A chip, antigen 81-0.037 nM. On the procedure:
as §1

The target of assay [10] is T4, biotinylated human PD-L1-Avi-His (Acro …). The description is as above. On the procedure: as §1
Assay [11] deals with T1, PD-L1 on PD-L1 cells (Promega, …). The assay is described as follows: cell-based or functional assay. This is another data set of the same source.
Assay [12] addresses T7, human PD-L1 on HEK293 cells (HEK293.hPD-L1) (human, UniProt Q9NZQ7 19-290).
T7 construct: Flp-In T-REx 293 cells stably overexpressing human PD-L1; also called cell surface human PD-L1
Kind of assay: flow cytometry on HEK293 cells expressing human PD-L1, GMFI against concentration. How it is done:
Non-specific binding was also assessed by testing binding to HEK293 parental cells lacking human PD-L1 (Flp-In T-Rex 293 cell line, Life Technologies, R780-07).
HEK293 and HEK293.hPD-L1 suspensions were prepared in PBS containing 0.5% BSA (Sigma. A7906) and seeded at 1×10⁵ cell/well in 100 μl in round bottomed 96-well plates (VWR, 734-1797). […] The washed cells were resuspended in the diluted antibody mixture, incubated at 4° C. for 30 minutes, and then washed once in PBS. 100 μl/well of secondary antibody (Alexa Fluor 647-AffiniPure Goat Anti-Human IgG, F(ab′)2 Fragment Specific, Stratech Scientific, 109-605-006-JIR) diluted 1:1000 in PBS was then added, the cells/antibody mixture was incubated for 20 mins at 4° C., and the cells were then washed again with PBS and resuspended in 100 μl of PBS containing 7AAD (1:1000, Biotium, 40043) before being analysed using a Canto II flow cytometer (BD Bioscience). Dead cells were excluded and the fluorescence in the FITC channel (488 nm/530/30) was measured. The geometric mean fluorescence intensity (GMFI) values were plotted against the log concentration of antibody and the resulting curves were fitted using the log (agonist) versus response equation in GraphPad Prism.
(In general: Flow cytometry measures light scatter and fluorescence of single cells or particles in a stream.)

Residue numbers refer to the chain shown, from its start. A value given as a limit tells only on which side of the number the result lay.

T6 sequence (G7PSE7 entry or part of it): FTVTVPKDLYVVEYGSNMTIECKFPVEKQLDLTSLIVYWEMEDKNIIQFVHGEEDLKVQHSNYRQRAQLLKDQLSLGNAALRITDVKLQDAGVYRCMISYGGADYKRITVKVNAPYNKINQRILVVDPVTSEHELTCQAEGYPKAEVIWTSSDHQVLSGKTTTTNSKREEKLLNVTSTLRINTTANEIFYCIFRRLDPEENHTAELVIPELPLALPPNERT
T2 sequence (chain, as listed by the source limits assumed): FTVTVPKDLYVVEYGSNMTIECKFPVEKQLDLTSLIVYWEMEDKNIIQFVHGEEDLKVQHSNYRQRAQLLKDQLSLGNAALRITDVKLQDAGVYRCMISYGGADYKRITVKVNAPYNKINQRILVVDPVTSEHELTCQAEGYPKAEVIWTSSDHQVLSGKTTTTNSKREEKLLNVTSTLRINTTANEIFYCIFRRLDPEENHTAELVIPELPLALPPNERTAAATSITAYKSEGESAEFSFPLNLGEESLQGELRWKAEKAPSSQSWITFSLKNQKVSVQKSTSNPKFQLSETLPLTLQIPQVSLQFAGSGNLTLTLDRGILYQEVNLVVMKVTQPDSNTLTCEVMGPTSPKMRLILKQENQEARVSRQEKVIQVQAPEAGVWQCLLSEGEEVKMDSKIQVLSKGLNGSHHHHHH
T7 sequence (Q9NZQ7 19-290): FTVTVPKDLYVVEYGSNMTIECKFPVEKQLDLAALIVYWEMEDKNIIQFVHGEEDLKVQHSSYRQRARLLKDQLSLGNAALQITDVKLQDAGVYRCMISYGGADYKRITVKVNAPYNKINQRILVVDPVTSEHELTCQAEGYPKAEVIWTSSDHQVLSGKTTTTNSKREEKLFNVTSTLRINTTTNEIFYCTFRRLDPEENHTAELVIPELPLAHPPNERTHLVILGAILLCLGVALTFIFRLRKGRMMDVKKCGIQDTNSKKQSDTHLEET
T1 sequence (Q9NZQ7 19-290): as above
Chain of mouse PD-L1 on LK35.2 cells (LK35.2 mPD-L1) (Q9EP73 19-290): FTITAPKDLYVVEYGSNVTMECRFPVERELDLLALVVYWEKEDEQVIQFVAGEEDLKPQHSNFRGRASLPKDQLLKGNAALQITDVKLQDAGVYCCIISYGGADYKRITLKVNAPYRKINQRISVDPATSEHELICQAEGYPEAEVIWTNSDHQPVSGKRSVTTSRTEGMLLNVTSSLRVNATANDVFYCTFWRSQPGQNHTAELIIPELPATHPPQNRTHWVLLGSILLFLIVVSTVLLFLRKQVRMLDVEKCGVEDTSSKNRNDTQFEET

B1: G1/280_02_G02 (antibody, human IgG1, V domains shown)
VH: EVQLVQSGAEVKRPGASVKVSCKASGYTFTSYGISWVRQAPGQGLEWMGWISAYNGNTNYAQKLQGRVTMTTDTSTSTAYMELRSLRSDDTAVYYCARDLFPTIFGVSYYYYWGQGTLVTVSS
VL: QSALTQPASVSGSPGQSITISCTGTSSDVGGYNSVSWYQQFPGKAPKLMIFEVTNRPSGVSDRFSGSKSDNTASLTISGLQAEDEAEYYCSSFKRGSTLVVFG
For the molecule B1, in assay [1], the “half maximal effective concentration (EC50), dose-response co-culture reporter assay (luciferase)” value was 4.2 nM.

B2: G1/929_01_A02 (antibody, human IgG1, V domains shown)
VH: B1 VH with N55S, N57G
VL: DIQMTQSPSTLSASVRDRVIITCRASQSIGNRLAWYQHKPGKAPKLLIYEASTSETGVPSRFSGSGSGTDFTLTISSLQPEDFATYYCQQSYSTPYTFGQGTKLEIKR
notes: IgG1; The heavy chain as printed has T28
Take B2: the “fold lower affinity than G1AA/E12v2” value with Cyno PD-L1-rCD4-His [2] and in the assay with human PD-L1-rCD4-His [3] was above 10 fold in each case. The dissociation constant Kd (usually a measure of binding affinity in units of concentration) with Cyno PD-L1-rCD4-His [4] is 3.64 nM; with human PD-L1-rCD4-His [5], 3.07 nM.

B3: G1/887_04_E12 (antibody, human IgG1, V domains shown)
VH: B1 VH with T28P, G56S
VL: B2 VL
notes: IgG1 without LALA, kappa light chain; proline at Kabat position 28 of VH
As for B3, the “fold higher binding affinity than G1AA/280_02_G02_NS” value in assay [6] lay within 1.8 to 4.8 fold. For the same molecule, in [7], the “EC50 (nM), mPD-L1 DO11.10 T Cell Activation Assay (IL-2 release)” value (from here on “EC50 (nM)”) amounted to 1.02 nM. In addition, in assay [7], the “Emax (pg/ml), mPD-L1 DO11.10 T Cell Activation Assay (IL-2 release)” value (“Emax (pg/ml)” below) was found to be 1970 pg/mL. Besides, the dissociation constant Kd with Cyno PD-L1-rCD4-His [4] was 0.25 nM; with human PD-L1-rCD4-His [5], 0.21 nM; in assay [8] it was 38 nM; in assay [9] it was 0.28 nM; in assay [10], 0.23 nM. Moreover, the “IC50 (nM), PD1/PD-L1 Blockade Bioassay” value in [11] came to 0.35 nM. A half-maximal response in [12] (EC50) required 0.26 nM.

B4: G1/894_08_E05 (antibody, human IgG1, V domains shown)
VH: B1 VH with G56S
VL: DIQMTQSPSTLSASVGDRVTITCRASQSISGRLAWYQQKPGKAPNLLIYEASNLESGVPSRFSGSGSGTEFTLTISSLQPEDFATYYCQQSYSTPRVTFGQGTKVEIKR
notes: IgG1 without LALA, kappa light chain; also called G1/894_8_E05
On to B4, for which the “fold higher binding affinity than G1AA/280_02_G02_NS” value in assay [6] was 1.8 to 4.8 fold. Moreover, the “EC50 (nM)” value in assay [7] stood at 4.37 nM. For the same molecule, the “Emax (pg/ml)” value in assay [7] is 2110 pg/mL. For the same molecule, the Kd with Cyno PD-L1-rCD4-His [4] is 0.59 nM; with human PD-L1-rCD4-His [5] it was 0.48 nM; in assay [8], 223 nM; in [9], 0.49 nM; in assay [10], 0.6 nM. In addition, the “IC50 (nM), PD1/PD-L1 Blockade Bioassay” value in assay [11] was 0.36 nM. Besides, in assay [12], the concentration for a half-maximal effect (EC50) (usually the concentration giving half of the maximal effect) was 0.29 nM.

B5: G1/887_04_G12 (antibody, human IgG1, V domains shown)
VH: B1 VH with G56S
VL: DIQMTQSPSTLSASVGDRVTITCRASQSISGRLAWYQQKPGKAPNLLIYEASNLESGVPSRFSGSGSGTEFTLTISSLQPEDFATYYCQQSYSWPRTFGQGTKVEIKR
notes: IgG1 without LALA, kappa light chain
As for B5, the “EC50 (nM)” value in [7] amounted to 2.71 nM. For the same molecule, the “Emax (pg/ml)” value in [7] worked out at 1910 pg/mL. Also, the dissociation constant Kd with Cyno PD-L1-rCD4-His [4] was found to be 0.5 nM; in the assay with human PD-L1-rCD4-His [5], 0.36 nM; in [8], 225 nM; in [9] it was 0.45 nM; in [10] it was 0.39 nM. For the same molecule, in [11], the “IC50 (nM), PD1/PD-L1 Blockade Bioassay” value amounted to 0.33 nM. Also, the EC50 in assay [12] was 0.27 nM.
